Reference: patent US20160136234A1

How the values were obtained:
Assay in all cases: cell-based or functional assay
[1] = molecular target: T1, ARK5 (h) (human) (UniProt O60285)
T1 sequence (looked up): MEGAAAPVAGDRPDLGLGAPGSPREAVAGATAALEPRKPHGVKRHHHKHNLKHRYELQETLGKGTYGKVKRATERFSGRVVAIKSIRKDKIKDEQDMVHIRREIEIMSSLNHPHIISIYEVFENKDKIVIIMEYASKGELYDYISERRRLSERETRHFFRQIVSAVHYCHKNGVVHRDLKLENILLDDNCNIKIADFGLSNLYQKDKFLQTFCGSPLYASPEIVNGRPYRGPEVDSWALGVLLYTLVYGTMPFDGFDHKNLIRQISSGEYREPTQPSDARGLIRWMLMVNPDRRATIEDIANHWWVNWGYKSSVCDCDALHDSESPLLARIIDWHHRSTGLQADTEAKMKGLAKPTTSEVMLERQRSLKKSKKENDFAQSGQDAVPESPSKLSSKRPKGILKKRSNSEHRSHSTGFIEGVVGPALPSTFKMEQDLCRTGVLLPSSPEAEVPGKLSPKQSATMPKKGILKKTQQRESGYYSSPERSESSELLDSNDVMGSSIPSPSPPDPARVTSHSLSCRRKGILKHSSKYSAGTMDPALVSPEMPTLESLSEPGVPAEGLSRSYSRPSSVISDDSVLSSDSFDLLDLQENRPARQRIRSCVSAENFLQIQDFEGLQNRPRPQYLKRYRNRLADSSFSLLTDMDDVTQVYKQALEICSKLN

[2] = molecular target: T2, Aurora-A (h) (human) (UniProt O14965)
T2 sequence (looked up): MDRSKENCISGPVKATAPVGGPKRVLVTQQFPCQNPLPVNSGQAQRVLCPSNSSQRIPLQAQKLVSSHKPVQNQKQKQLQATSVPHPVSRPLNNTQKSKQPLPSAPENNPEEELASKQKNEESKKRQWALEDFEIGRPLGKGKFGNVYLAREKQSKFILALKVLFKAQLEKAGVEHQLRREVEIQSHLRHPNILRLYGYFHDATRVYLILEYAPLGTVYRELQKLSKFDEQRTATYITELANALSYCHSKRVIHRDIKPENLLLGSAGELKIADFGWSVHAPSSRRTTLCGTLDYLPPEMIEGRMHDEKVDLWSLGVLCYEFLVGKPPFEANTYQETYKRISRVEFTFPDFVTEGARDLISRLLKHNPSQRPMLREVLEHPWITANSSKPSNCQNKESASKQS

[3] = molecular target: DAPK1 (h) (human) (UniProt P53355)
[4] = molecular target: EphA2 (h) (human) (UniProt P29317)
Sequence of EphA2 (h) (human) (P29317 559-976 limits assumed): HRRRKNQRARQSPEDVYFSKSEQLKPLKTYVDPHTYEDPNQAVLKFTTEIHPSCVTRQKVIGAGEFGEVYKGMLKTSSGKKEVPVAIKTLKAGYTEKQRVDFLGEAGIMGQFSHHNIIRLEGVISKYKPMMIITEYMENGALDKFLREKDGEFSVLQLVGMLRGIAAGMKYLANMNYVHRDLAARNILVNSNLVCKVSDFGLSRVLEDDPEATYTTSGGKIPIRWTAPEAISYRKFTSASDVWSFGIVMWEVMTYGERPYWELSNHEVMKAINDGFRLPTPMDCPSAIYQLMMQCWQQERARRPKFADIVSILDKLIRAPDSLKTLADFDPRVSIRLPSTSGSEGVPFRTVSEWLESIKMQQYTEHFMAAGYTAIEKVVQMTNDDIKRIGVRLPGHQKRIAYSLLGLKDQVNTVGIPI

[5] = molecular target: T3, EphA3 (h) (human) (UniProt P29320)
T3 sequence (looked up): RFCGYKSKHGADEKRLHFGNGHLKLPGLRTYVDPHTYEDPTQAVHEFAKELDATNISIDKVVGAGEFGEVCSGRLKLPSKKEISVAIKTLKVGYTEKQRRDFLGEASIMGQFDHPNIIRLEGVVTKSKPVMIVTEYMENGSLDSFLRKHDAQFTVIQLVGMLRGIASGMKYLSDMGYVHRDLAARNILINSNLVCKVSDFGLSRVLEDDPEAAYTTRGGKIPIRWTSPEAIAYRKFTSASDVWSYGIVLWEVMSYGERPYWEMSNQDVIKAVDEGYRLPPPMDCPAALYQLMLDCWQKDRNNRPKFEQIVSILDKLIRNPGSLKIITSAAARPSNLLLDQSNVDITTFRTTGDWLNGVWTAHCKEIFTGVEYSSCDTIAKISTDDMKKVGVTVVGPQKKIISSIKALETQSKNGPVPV

[6] = molecular target: T4, EphA5 (h) (human) (UniProt P54756)
T4 sequence (looked up): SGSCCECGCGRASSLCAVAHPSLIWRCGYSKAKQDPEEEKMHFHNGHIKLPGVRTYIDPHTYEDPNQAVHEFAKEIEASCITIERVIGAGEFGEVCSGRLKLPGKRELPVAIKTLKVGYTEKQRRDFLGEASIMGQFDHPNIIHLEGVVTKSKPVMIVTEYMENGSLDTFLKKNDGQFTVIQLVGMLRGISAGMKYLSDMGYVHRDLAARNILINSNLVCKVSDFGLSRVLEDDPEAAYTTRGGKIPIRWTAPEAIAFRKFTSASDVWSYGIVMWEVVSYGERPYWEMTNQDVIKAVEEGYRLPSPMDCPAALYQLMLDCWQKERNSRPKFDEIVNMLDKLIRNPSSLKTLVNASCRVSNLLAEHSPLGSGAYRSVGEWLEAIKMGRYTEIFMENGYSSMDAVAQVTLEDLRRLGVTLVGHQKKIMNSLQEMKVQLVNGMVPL

[7] = molecular target: T5, IKKβ (h) (human) (UniProt O14920)
T5 sequence (looked up): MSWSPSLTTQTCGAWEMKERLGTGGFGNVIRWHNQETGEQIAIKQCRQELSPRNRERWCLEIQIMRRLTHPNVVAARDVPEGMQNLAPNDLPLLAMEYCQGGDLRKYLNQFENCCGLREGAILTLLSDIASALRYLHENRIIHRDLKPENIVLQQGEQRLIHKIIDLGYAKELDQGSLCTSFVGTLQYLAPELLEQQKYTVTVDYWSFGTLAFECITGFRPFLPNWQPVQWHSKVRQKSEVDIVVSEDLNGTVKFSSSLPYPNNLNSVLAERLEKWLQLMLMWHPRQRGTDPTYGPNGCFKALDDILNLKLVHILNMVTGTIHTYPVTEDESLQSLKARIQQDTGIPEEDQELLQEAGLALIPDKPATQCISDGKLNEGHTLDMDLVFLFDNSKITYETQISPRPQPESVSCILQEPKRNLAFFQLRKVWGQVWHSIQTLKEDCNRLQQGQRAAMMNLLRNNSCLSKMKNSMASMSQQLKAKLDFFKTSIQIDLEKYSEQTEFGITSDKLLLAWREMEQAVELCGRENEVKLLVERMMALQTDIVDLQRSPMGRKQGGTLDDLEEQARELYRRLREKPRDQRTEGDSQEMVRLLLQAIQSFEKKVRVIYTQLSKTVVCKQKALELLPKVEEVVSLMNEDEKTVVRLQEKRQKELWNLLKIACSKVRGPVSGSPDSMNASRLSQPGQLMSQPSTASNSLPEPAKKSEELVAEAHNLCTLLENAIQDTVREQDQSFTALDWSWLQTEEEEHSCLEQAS

[8] = molecular target: MRCKβ (h) (human) (UniProt Q9Y5S2)
Sequence of MRCKβ (h) (human) (Q9Y5S2 1-473 limits assumed): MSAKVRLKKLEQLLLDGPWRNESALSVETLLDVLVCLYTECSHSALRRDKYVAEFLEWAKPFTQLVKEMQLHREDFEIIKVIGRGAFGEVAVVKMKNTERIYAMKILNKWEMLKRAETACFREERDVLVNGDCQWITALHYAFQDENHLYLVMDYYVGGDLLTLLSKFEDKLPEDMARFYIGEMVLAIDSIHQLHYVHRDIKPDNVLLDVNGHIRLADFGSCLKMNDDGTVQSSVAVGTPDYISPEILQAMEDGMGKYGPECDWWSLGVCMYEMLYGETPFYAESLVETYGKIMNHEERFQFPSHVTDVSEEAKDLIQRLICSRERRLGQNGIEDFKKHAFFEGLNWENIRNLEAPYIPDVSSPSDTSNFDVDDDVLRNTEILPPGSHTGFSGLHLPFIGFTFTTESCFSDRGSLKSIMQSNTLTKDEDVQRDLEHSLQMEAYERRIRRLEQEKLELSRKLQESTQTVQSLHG

[9] = molecular target: NEK6 (h) (human) (UniProt Q9HC98)
[10] = molecular target: PAK3 (h) (human) (UniProt O75914)
[11] = molecular target: Yes (h) (human) (UniProt P07947)

MMI-0300 (peptide)
% activity at 100 µM [1]: 78%
% activity at 100 µM [2]: 92%
% activity at 100 µM [3]: 46%
% activity at 100 µM [4]: 31%
% activity at 100 µM [5]: 6%
% activity at 100 µM [6]: 18%
% activity at 100 µM [7]: 84%
% activity at 100 µM [8]: 83%
% activity at 100 µM [9]: 82%
% activity at 100 µM [10]: 140%
% activity at 100 µM [11]: 67%
